Measured values as given in patent US20110282030A1 (MAYO FOUNDATION FOR MEDICAL EDUCATION AND RESEARCH, published 2011).
Where no end group is shown, it is not given here.

Columns and labels:
human NPR-B = target: T1, human NPR-B (human, UniProt P20594 23-1047); experiment: cell-based or functional assay
T1 sequence: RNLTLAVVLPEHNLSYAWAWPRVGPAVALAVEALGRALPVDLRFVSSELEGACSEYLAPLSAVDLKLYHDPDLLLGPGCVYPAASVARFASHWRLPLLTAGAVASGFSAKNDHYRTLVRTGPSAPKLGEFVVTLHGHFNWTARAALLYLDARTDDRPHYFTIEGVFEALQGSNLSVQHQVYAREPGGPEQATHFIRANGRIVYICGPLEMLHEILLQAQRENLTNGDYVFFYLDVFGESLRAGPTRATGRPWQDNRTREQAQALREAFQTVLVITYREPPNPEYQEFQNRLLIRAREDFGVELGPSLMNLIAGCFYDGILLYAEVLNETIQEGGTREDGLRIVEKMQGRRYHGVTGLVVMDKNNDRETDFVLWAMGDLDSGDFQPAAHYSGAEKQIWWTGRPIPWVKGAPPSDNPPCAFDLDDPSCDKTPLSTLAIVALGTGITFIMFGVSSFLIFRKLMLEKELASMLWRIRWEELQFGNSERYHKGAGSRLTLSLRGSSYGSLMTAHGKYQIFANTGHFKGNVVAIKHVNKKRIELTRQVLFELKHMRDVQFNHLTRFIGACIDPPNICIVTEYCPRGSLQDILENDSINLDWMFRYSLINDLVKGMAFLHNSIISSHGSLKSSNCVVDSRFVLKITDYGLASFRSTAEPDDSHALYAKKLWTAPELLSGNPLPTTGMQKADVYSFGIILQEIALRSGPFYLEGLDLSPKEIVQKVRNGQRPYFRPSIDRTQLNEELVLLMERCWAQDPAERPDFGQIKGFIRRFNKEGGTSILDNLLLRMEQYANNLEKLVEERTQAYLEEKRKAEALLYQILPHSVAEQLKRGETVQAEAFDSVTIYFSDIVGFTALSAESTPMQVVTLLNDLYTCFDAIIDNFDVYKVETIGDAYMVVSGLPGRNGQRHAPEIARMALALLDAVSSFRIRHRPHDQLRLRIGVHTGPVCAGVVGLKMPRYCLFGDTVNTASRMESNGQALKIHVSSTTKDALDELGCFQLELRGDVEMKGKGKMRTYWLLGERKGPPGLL

human NPR-A [1] = target: T2, human NPR-A (human, UniProt P16066 33-1061); experiment: competition ^125I-ANP binding on whole 293 cells expressing hNPR-A
T2 construct: whole, on cells; also called hNPR-A; hNPRA
T2 sequence: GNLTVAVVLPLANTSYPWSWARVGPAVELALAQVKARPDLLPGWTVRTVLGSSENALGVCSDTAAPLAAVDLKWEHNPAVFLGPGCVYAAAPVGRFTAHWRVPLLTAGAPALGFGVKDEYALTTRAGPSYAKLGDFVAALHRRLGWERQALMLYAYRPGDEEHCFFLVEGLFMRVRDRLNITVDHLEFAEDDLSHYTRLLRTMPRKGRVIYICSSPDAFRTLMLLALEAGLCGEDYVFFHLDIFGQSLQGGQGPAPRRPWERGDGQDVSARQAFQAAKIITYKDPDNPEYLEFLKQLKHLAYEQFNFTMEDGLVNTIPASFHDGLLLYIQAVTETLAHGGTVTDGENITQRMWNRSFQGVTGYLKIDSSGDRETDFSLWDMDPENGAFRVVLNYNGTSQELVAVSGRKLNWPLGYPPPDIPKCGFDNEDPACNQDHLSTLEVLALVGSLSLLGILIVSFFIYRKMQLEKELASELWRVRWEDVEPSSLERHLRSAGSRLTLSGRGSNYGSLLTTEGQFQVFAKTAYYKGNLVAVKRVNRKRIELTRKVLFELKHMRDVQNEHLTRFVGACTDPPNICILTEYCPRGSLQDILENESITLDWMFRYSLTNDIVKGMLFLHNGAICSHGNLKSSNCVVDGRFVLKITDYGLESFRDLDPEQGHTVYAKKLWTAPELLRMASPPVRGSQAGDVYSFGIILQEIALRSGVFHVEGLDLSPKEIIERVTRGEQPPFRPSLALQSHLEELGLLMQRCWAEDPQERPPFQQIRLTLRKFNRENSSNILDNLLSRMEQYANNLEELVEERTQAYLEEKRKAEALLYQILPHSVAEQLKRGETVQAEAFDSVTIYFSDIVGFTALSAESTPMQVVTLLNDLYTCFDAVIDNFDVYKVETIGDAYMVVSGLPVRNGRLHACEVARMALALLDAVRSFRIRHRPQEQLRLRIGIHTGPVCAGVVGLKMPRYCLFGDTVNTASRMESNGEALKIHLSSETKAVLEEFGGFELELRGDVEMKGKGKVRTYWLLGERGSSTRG

human NPR-C = target: T3, human NPR-C (human, UniProt P17342 27-541); experiment: displacement of ^125I-ANP from NPR-C
T3 construct: whole, on cells; also called clearance receptor
T3 sequence: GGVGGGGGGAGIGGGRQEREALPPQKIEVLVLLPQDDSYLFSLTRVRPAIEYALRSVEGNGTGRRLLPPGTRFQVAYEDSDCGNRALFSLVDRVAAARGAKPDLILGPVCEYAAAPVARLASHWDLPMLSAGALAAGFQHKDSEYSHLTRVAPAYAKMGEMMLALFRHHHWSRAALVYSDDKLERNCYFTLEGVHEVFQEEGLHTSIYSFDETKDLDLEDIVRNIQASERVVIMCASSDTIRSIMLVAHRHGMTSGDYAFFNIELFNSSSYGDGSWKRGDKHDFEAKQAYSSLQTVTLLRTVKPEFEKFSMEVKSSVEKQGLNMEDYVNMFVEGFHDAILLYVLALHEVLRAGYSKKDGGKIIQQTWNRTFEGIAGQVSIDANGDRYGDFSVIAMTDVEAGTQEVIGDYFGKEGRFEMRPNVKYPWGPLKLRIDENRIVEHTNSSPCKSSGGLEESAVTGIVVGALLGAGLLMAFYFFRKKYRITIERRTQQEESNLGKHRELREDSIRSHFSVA

human NPR-A [2] = target: T2, human NPR-A; experiment: not told; no binding experiment of DNP on NPR-A is described

| Binder | EC50, cellular cGMP elevation in 293 cells expressing hNPR-B (human NPR-B) [nM] | binding result (human NPR-A [1]) | binding result (human NPR-C) | binding result (human NPR-A [2]) |
| --- | --- | --- | --- | --- |
| GLSKGCFGLKLDRIGSMSGLGC (ligand) [Human CNP] | 38 | no binding (tested: 10 µM) | binds | – |
| SLRRSSCFGGRMDRIGAQSGLGCNSFRY (ligand) [Human ANP] | – | – | binds | – |
| EVKYDPCFGHKIDRINHVSNLGCPSLRDPRPNAPSTSA (ligand, ends and bridges not checked; cysteine pairing not given here, also called snake DNP polypeptide) [DNP] | – | – | – | binds |
